This note sets out measurements from publication PMC3115508.

Data set [1] addresses T1, HUαβ (Escherichia coli, UniProt P0ACF0;P0ACF4 1-90;1-90). Description: ITC. A general note: Isothermal titration calorimetry measures the heat released or taken up as one component is titrated into another.
Data set [2] concerns the target T1, HUαβ. As to the kind of experiment: ITC. This is another data set of the same source.

T1 sequence (P0ACF0 whole entry, chain 1 of 2): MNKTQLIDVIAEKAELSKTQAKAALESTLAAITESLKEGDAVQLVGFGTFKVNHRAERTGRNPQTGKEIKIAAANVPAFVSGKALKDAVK
T1 sequence (P0ACF4 whole entry, chain 2 of 2): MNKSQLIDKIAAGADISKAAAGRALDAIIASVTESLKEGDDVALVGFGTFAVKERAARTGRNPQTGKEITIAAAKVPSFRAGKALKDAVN

B1: 15 bp DNA (dsDNA)
DNA 1: CGGTCAGTTCAAGGC
DNA 2: GCCTTGAACTGACCG
In the data set with HUαβ [1], B1 showed a binding signal of 2.8 ± 1 k10/k6 ratio.

B2: 38 bp DNA (dsDNA)
DNA 1: CGGTCAGTTCAAGCCCTTCTAAGTTTGTAGACACCAGC
DNA 2: GCTGGTGTCTACAAACTTAGAAGGGCTTGAACTGACCG
For the molecule B2, the binding result in the data set with HUαβ [2] was “binds”.
